Measured values reported in the nanobody polyreactivity screen of Harvey et al. (2022).

Test: yeast display, Sf9 membrane polyspecificity reagent, FACS + sequencing; frameworks hold sequencing errors
How it was run: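 Synthetic nanobody libraries on Saccharomyces cerevisiae BJ5465 were galactose-induced for 36–48 hours, stained 1 hour at 4 °C with 10% biotinylated, detergent-solubilized Sf9 membrane reagent and enriched on streptavidin microbeads. FACS then separated cells into low and high (top ~1%) gates by anti-HA (expression) and streptavidin (reagent binding) fluorescence. Genes were colony-PCR amplified, MiSeq 2 × 250 sequenced and CDR-length filtered. A clone's polyreactivity label is that of its gate of origin.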

Sequence | polyreactivity (PSR sort gate)
QVQLVESGGGLVQAGGRLRLSCAGSGRIFISNTMGWYRQGPGKERELVASISLRGGSTYYADSVKGRFTISRDNAKNSVYLQMNSLKPEDTAVYYCAAATLRQYDDEYWGQCTQVTVSS | high polyreactivity
QVQLVESGGGLVQAGGRLRLSCAPSGNIFRYYVMGWYRPAPGKEREFLAAITSSGGSTYYADSVKGRFTISRDNAKNTVYLKINSLKPEDTEVYYCAKDYWDPGWAEYDYWGQGTQVTVSS | low polyreactivity
QVQLVESGGGLVQAGGRLRLSCAPSGRTFKYYAMGGYREAPGKERELVASISSGGNTNYADSVKGRFTISRDNATNSVYFQMNSLKPEDTAVYYCAASTWQNRRSYYWGQGTQVTVSS | high polyreactivity
QVQLVESGGGLVQAGGRLRLSCAPSGSTFHSNDMGWYRQAPGKERELVAAITWSGARTYYVDSVKGRFTISRDNAKNTVYLQMNSLKPEDTAVYSCAKKAPSDRNNYWGQGTQVTVSS | high polyreactivity
QVQLVESGGGLVQAGGRLRLSCPASGSIFGGYAMGWYRQAPGKERELVAGITRSGGSTYYADSVKGRFTISRYNAKNTVYFQMNSLKPEDTAVYYCAVEIQFYRSPRKVRSYDYWGQGTQVTVSS | low polyreactivity
QVQLVESGGGLVQAGGRLRLSCPASGSTFYYYGMGWYRQAHGKERELVAAINCSCGTTYYADSVKGRFTISRDNAKNTVYLQLNSLKPEDTAVYYCAAAFYIYGVEGDYWGQGTQVTVSS | low polyreactivity
QVQLVESGGGLVQAGGRLRLSCSASGRIFATYAMGWYRQAPGKERELVASISRRGGSTYYADSVKGRFTISRDNAKKTVYLQMNSLKPEDTAVYYCAKLFDTERGYNYWGQGTQVTVSS | high polyreactivity
QVQLVESGGGLVQAGGRLRLSCSASGSTFGYYAMGWYRQAHGKQRELDASITWTGGSTYYADSVKGRFTISRDNAKYTVYLLMNSLKPEDTAVYYCAAQLEASYWLWTGYGYLGQGTQVTVSS | high polyreactivity
QVQLVESGGGLVQAGGRLRLSSAASGIIFGNNAMGWYRQAPGKERELVAAIRYSGGRTYYADSVKGRFTISRDIAKNTVYLQMNSLKPEDTAVYYCNALRRGPDGSDYWGQGTQVTVSS | high polyreactivity
QVQLVESGGGLVQAGGRLRLSSAASGRIFHSYAMGWYRQAPGKDRELVAGITSRGGTYYADSVKGRFTISRDNAKNTVYLQMNSLKPEDTAVYYCNADQALYSSGNKYDYWGQGTQVTVSS | low polyreactivity
QVQLVESGGGLVQAGGRLRLSSAASGSIFDLYAMGWYRQAPGKERELVASIRYSGGRTYYADSVKGRFTISRDNAKNSVYLQMNSLNPEDTAFYYCNRDGGYTFIMDYWGQGTQVTVSS | low polyreactivity
QVQLVESGGGLVQAGGRLRLSSAASRIIFRDNDMGWYRQAPGKERELVASISDSGGSTYYADSVKGRFTISRDNAKNTVYLQKNSLKSEATAVYYCAAPYLSLYLYDYWGQGTQVTVSS | low polyreactivity
QVQLVESGGGLVQAGGRLRLSSADYGITIELYVMGWYRQAPGKERELVAAINRGTSTYYADSVKGRFTISRDNAKNTVYLQMNSLKPEDTAVYYCAAESGVVALYRYDYWGQGTQVTVSS | low polyreactivity
QVQLVESGGGLVQAGGRLRLTCAASASIFHYNSMGWYRQATGKQRELVAAITSGGSTYADSVKGRFTISRDNAKNTVYLQMNSLKPEDTAVYYCNADSVGPRGDLGYWGQGTQVTVSS | low polyreactivity
QVQLVESGGGLVQAGGRLRLTCAASGRIFVIYAMRWYRQAPGKERELVAGITRGDRTYADSVKARFTISRDNAKNTVYLQMNSLKPEDTAVYYCNADTGYRFDYWGQGTQVTVSS | high polyreactivity
QVQLVESGGGLVQAGGRLSLSCAASGFIFDYYSMGWYRQAPGKERELVAAISWSGGSTYYADSVKGRFTISRDNAKNTVYLQMNSLKPEDTAVYYCNTYYQGYWGDFDYWGQGTQVTVSS | high polyreactivity
QVQLVESGGGLVQAGGSFRLSCAASGGTVDTYVMGWYRQAPGKERELVAVITRGASTYYADSVKGRFTISRDNAKNTVYLQMNSLKPEDTAVYYCAAACYSPDYYRFWYSFDYWGQGTQVTVSS | low polyreactivity
QVQLVESGGGLVQAGGSFRLSCAASGLISTTYAMGWYRQAPGKERELVAAINVSGGSTYYADSVKGRFTISRDHAKNTVYLQMNSLKPEDTAVYYCAARHDKRRQYYVGQSAFDYWGQGTQVTVSS | low polyreactivity
QVQLVESGGGLVQAGGSHRFSCAASGRIFYGHVMGWYRQAPGKERELVADISYDGGSTYYADSVKGRFTISRDNAKKTVYLQMNSLNPEDTAVYYGATRFVYRYTFWYYSTEYNYCGQGTQVTVSS | low polyreactivity
QVQLVESGGGLVQAGGSHRISCAASGFIFPYYAMGWYRQAPGKERELVAAITSGGSTNYADSVKGRFTISRDNAKNTVYLQMTSLKPEDTAVYYCDKRLKRWSVYCRYDYWGQGTQVTVSS | high polyreactivity
QVQLVESGGGLVQAGGSHRLSCAACGYIFFYNAMGWYRQAPGKERELVASITYRGGSTYYADSVKGRFTISRDNAKNSVYLQMNSLKPEDTAVYYCNVDGGGPLGPQGFPFDYWGQGTQVTVSS | low polyreactivity
QVQLVESGGGLVQAGGSHRLSCAASGFTFNKYAMGWYRQAPRKERELVAAISSSGGRTSYADSVKGRFTISRDNAKNTVYLQMNSVKPEDTAVYYCNKVSTADMGYWGQGTQVTVSS | high polyreactivity

Sequence | polyreactivity (PSR sort gate)
QVQLVESGGGLVQAGGSHRLSCAASGFTIVQYAMGWYRQAPGKERELVARISRNGGSTYYADSVKGRFTISRDNAKNTVYLQMNSLKPEDTAVYYCNALRGPVKYYSWGQGTQVTVSS | low polyreactivity
QVQLVESGGGLVQAGGSHRLSCAASGGIAGNTMGWYRQAPGKERELVAAITRSGGRTYYADSVKGRFTISRDNAKNTVYLQMNSLKPEDTAVYYCAVTGLVRRRYGYWGQGTQVTVSS | high polyreactivity
QVQLVESGGGLVQAGGSHRLSCAASGGTYITNAMGWYRQAPGKERELVAAITSGGRTTYADSVKGRFTISRDNAKNTVYLQMNSLKPEDTAVYYCAADHVYSYTYNFDYWGQGTLVTVSS | low polyreactivity
QVQLVESGGGLVQAGGSHRLSCAASGITFARYAIGWSRQAPGKEREFLAAISWSGGNTYYADSVKGRFTISRDYAKNTVYLQLNSLKTEDTAVYYCAAESKGSWRYYYRFYYWGQGTQVTVSS | high polyreactivity
QVQLVESGGGLVQAGGSHRLSCAASGLIFNYYAMGGYRQAPGKERELVASITGGDSTNYADSVKGRFTISRDNAKNTVYLQMNSLKPEDTAVYYCAAEFYGSSYGYRTYDYYYWGQGTQVTVSS | low polyreactivity
QVQLVESGGGLVQAGGSHRLSCAASGLTFVDNAMGWYRQAPGKDRELVAANSYNGGSTYYADSVKGRFTISRDNAKNTVYLQLHRLKPEDTAVYYCAADISVGRYGDMDDWGQGTQVTVSS | low polyreactivity
QVQLVESGGGLVQAGGSHRLSCAASGRIFFPYDMGWYRQAPGKDRELVAAITNSGGRTYYADSVKGRFTISRDNAKNTVYLQMNSLKPEDSAVYYCAAEYVSAKWEYGYWGQGTQVTVSS | low polyreactivity
QVQLVESGGGLVQAGGSHRLSCAASGRIFKIYAMGWYRQAPGKERELVAAISRGGRTYYADSVKGRFTISRDNAMYTFYLLLNSLTPEDTAVYYCNLYAPDTYGINGYWGQGTQVSVSS | high polyreactivity
QVQLVESGGGLVQAGGSHRLSCAASGRIFRSYAMGWYRQAPGKERELVAAISDRGGSTYYADSVKGRFTISRDNAKKTVYVQMNRLKAEDTAVYSCNAPRGGRNTVYYWGQGTQVTVSS | high polyreactivity
QVQLVESGGGLVQAGGSHRLSCAASGRIFTYNAMGWYRQAPGKERELVAVITSGGSTYYADSVKGRFTISRDNAKNTVYLQMNSLKPEDTAVYYCNAVYFRYRYNYWGQGTQVTVSS | high polyreactivity
QVQLVESGGGLVQAGGSHRLSCAASGRIFTYYAMGWYRQAPGKQREFVAAITYRGGRTYYADSVKGRFTISRDNAKNTVYLQLNSLNPEDTAVYYCNVAPYGYWPRYYPWRELDYWGQGTQVTVSS | high polyreactivity
QVQLVESGGGLVQAGGSHRLSCAASGRILYGYAMGWYRQAPGQERELVASITWSGGSTYADSVKGRFTISRDNAKNTVYLQMKSLKPEDTAVYYCATRRGPKWQWLTYGYWGLGTQVTVSS | low polyreactivity
QVQLVESGGGLVQAGGSHRLSCAASGRTFGYNAMGWYRQAPGKERELVAAISRSGGRTYYADSVKGRFTISRDNAKNTVYLHMNRLKPEDTAVYYCAAESYHRGYDYWGQGTQVTVSS | high polyreactivity
QVQLVESGGGLVQAGGSHRLSCAASGRTFRPYAMGWYRQAPGKERELVAAITGGTRKYYADSVKGRFTISRDNAKNSVYLQMNSLKPEVTAVYSCAKGDFFSKHDYRGQGTQVTVSS | low polyreactivity
QVQLVESGGGLVQAGGSHRLSCAASGRTFSTYSMGWYRQAPGKERELVAAISSGGGRTYYADSVKGRFTISRDIAKNTVYLQINSLKPEDTAVYDGAADRYFRSRRSYEYWGQGTQVTVSS | low polyreactivity
QVQLVESGGGLVQAGGSHRLSCAASGRTFVFYAMGWYRPAPGKERELVAAISRSGGSTYYADSVKGRFTISRDNAKNTVFLQMNSLKPEDTAVSYCNARYTGSGGYWGQGTQVTVSS | high polyreactivity
QVQLVESGGGLVQAGGSHRLSCAASGRTFYAYAMGWYRQAPGKERELVAANRYSGGRTYYADSVKGRFTISRDNAKNTVYLQMNSLKPEDTGVYYCAREWSRGSYVDYDYWGQGTQVTVSS | high polyreactivity
QVQLVESGGGLVQAGGSHRLSCAASGRTFYFYTMGWYRPAPGKESELVATIRWSAGSTYYADSVKGRFTISRDNAKNTVYLQMNSLKPEDTAVYYCNADPYVYSSWEYGYWGLGTQVTVSS | high polyreactivity
QVQLVESGGGLVQAGGSHRLSCAASGSIFYDNAMGWYRQAPGKERELVAVITVSGDSTYYADSVKGRFTISRDNAKNTVYLQMNSLKPEDTAVYYCNTDAISGSHFWRYITFGYLDDYWGQGTQVTVSS | low polyreactivity
QVQLVESGGGLVQAGGSHRLSCAASGSTFRVYAMGWYRQAPGKERELVATISWGGGRTYYADSVKGRFTISRDNAKNTVYLQMNSLKPEDTAVYYCAADQRWTTDQPTAGDYWGQGTQVTVSS | low polyreactivity
QVQLVESGGGLVQAGGSHRLSCAASGSTFTYNAMGWYRQAPGKERELVASISSGTTTYYADSVKGRFTISRDNAKNTVYLQMNSLIPEDTAVYDCAVDSWSRVQGWLAHNYDYWGQGTQVTVSS | low polyreactivity
